Results published in patent US20190248904A1 (Astellas, published 2019).
Where two headings read alike, the source gives them in different places.

T1: human BDCA-2 variant (human, UniProt Q8WTT0 1-213)
T1 construct: It was expressed on CHO-K1 cells together with full-length human FcεRIγ; also called human BDCA-2 variant/CHO cells; extracellular region of human BDCA-2
T1 chain: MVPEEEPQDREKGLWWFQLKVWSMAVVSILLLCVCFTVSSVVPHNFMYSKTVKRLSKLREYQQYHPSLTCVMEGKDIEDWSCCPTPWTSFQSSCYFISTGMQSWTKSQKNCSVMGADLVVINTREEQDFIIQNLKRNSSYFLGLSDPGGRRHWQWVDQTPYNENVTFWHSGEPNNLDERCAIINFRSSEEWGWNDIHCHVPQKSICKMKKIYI

T2: human BDCA-2 (human, UniProt Q8WTT0 1-213)
T2 sequence: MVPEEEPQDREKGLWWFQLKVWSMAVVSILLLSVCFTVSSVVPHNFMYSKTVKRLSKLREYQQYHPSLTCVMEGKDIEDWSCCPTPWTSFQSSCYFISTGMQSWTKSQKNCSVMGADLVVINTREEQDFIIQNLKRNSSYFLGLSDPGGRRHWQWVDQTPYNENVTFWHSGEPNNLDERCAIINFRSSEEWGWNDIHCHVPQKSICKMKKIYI


How the values were obtained:
human BDCA-2 variant [1] = target: T1, human BDCA-2 variant; assay: cell ELISA on human BDCA-2 variant/CHO cells, chemiluminescence
Protocol: (§1) In order to measure the antigen-specific binding activity of the antibody, the binding of the antibody to the human BDCA-2 variant/CHO cells prepared in Example 1 was evaluated. Specifically, the human BDCA-2 variant/CHO cells were first suspended in an RPMI1640 culture medium (Life Technologies, Inc.) at 2×10⁵ cells/mL, seeded at 50 μL per well in a poly-D-lysine-coated 384-well plate (Greiner Bio-One), and cultured overnight in a CO₂ incubator set at 37° C. Then, the culture medium was removed, and 20 μL of each of a hybridoma-derived antibody (the antibody purified in Example 2) and a comparative antibody which had been diluted stepwise from a concentration of 10000 ng/mL to 4.6 ng/mL (8 steps in a 3-fold dilution series) with a diluent solution (a Hank's Balanced Salt solution supplemented with 1% bovine serum albumin) was added thereto and reacted at room temperature for 1 hour. Next, the assay plate was washed with a washing solution (a Hank's Balanced Salt solution supplemented with 0.1% bovine serum albumin) and 20 μL of an HRP-labeled rabbit anti-mouse IgG antibody ([…]: Dako Ltd.) which had been diluted 5000-fold with a diluent solution was added thereto, and reacted at room temperature for 30 minutes. Thereafter, the assay plate was washed with a washing solution, 30 μL of BM-Chemiluminescence ELISA Substrate (POD) (Roche Diagnostics. Inc.) which is a chemiluminescence detection reagent was added thereto, and the amount of chemiluminescence thereof was measured by an EnVision counter (PerkinElmer, Inc.). For the measurement results, the EC50 values were determined by fitting a four-parameter logistic curve. In this test, as a comparative antibody, AC144 (Non-Patent Documents 1 to 4, Miltenyi Biotec) which is a mouse antibody against human BDCA-2 was used.

human BDCA-2 [2] = target: T2, human BDCA-2; assay: cell-based or functional assay
human BDCA-2 [3] = target: T2, human BDCA-2; assay: cell-based or functional assay; remark: listed apart in the source
human BDCA-2 variant [4] = target: T1, human BDCA-2 variant; assay: cell ELISA on human BDCA-2 variant/CHO cells, average of three independent tests
Protocol: as §1
According to the method of Example 3, for a fully human antibody, the binding activity of the antibody against an extracellular region of human BDCA-2 was evaluated. […]

human BDCA-2 [5] = target: T2, human BDCA-2; assay: cell-based or functional assay; remark: listed apart in the source

| Molecule | EC50 (human BDCA-2 variant [1]) | IC50 of inhibition of IFNα production from human PBMC (pDCs), first time (human BDCA-2 [3]) | IC50 of inhibition of IFNα production from human PBMC (pDCs), second time (human BDCA-2 [3]) | IC90 of inhibition of IFNα production from human PBMC (pDCs), first time (human BDCA-2 [3]) | IC90 of inhibition of IFNα production from human PBMC (pDCs), second time (human BDCA-2 [3]) | EC50 (human BDCA-2 variant [4]) | IC50 of inhibition of IFNα production from ODN2216-stimulated human PBMC (pDCs) (human BDCA-2 [5]) | IC90 of inhibition of IFNα production from ODN2216-stimulated human PBMC (pDCs) (human BDCA-2 [5]) | further results |
| --- | --- | --- | --- | --- | --- | --- | --- | --- | --- |
| AC144 (antibody) | 0.133 µg/mL | – | – | – | – | – | – | – | IC50 of inhibition of IFNα production from ODN2216-stimulated human PBMC (pDCs) (human BDCA-2 [2]): 2.57 ng/mL; IC50 of inhibition of IFNα production from human PBMC (pDCs), first time (human BDCA-2 [2]): 2.12 ng/mL; IC50 of inhibition of IFNα production from human PBMC (pDCs), second time (human BDCA-2 [2]): 3.83 ng/mL; IC90 of inhibition of IFNα production from ODN2216-stimulated human PBMC (pDCs) (human BDCA-2 [2]): 56.5 ng/mL; IC90 of inhibition of IFNα production from human PBMC (pDCs), first time (human BDCA-2 [2]): 20.6 ng/mL; IC90 of inhibition of IFNα production from human PBMC (pDCs), second time (human BDCA-2 [2]): 26.8 ng/mL |
| Fully human BDC3-12F5 (antibody, human IgG1, kappa, V domains shown, deletion of lysine at the C terminal of the heavy chain in most of the purified antibody (Example 6), Human Igγ1 / human Igκ constant regions, expressed in CHOK1SV cells; also called fully human antibody of BDC3-12F5) VH: EVQLVESGGGLVQPGGSLRLSCAASGFTFSNYLMNWVRQAPGKGLEWVANIEQDGSEKYYVDSVKGRFTISRDNAKNSLYLQMNSLRAEDTAVYFCARDGDTAMITFDFWGQGTLVTVSS VL: DIQMTQSPSSVSASVGDRVTITCRASQGIRRWLAWYQQKPGKAPKLLIYAASSLQRGVPSRFSGSGSGTDFTLTISSLQPEDFATYYCQQANSFPWTFGQGTKVEIKR | – | 0.54 ng/mL | 0.24 ng/mL | 1.19 ng/mL | 1.98 ng/mL | 0.088 µg/mL | – | – | – |
| BDC3-12F5 (chimeric) (antibody, V domains shown, Hybridoma-derived VelocImmune antibody: human variable regions with mouse constant regions) VH: EVQLVESGGGLVQPGGSLRLSCAASGFTFSNYLMNWVRQAPGKGLEWVANIEQDGSEKYYVDSVKGRFTISRDNAKNSLYLQMNSLRAEDTAVYFCARDGDTAMITFDFWGQGTLVTVSS VL: DIQMTQSPSSVSASVGDRVTITCRASQGIRRWLAWYQQKPGKAPKLLIYAASSLQRGVPSRFSGSGSGTDFTLTISSLQPEDFATYYCQQANSFPWTFGQGTKVEIKR | 0.057 µg/mL | – | – | – | – | – | 0.23 ng/mL | 0.93 ng/mL | – |
| BDC3-12A2 (chimeric) (antibody, V domains shown, Hybridoma-derived VelocImmune antibody: human variable regions with mouse constant regions) VH: QVQLVESGGGVVQPGRSLRLSCAASGFTLSSYGMHWVRQAPGKGLEWVAVIWYDGNDKYYADSVKGRFTISRDNSKNTLYLQVNSLRAEDTAVYYCARGTGTPYWYFDLWGRGTLVTVSS VL: EIVLTQSPATLSLSPGERATLSCRASQSVNNYLAWYQQKPGQAPRLLIYDASNRATGIPARFSGSGSGTDFTLTISSLEPEDFAVYYCQQRSTWPPYTFGQGTKLEIKR | 0.059 µg/mL | – | – | – | – | – | 0.27 ng/mL | 1.03 ng/mL | – |
| Fully human BDC3-12A2 (antibody, human IgG1, kappa, V domains shown, pyroglutamylation at the N terminal of the heavy chain and deletion of lysine at the C terminal of the heavy chain in most of the purified antibody (Example 6), Human Igγ1 / human Igκ constant regions, expressed in CHOK1SV cells; also called fully human antibody of BDC3-12A2) VH: QVQLVESGGGVVQPGRSLRLSCAASGFTLSSYGMHWVRQAPGKGLEWVAVIWYDGNDKYYADSVKGRFTISRDNSKNTLYLQVNSLRAEDTAVYYCARGTGTPYWYFDLWGRGTLVTVSS VL: EIVLTQSPATLSLSPGERATLSCRASQSVNNYLAWYQQKPGQAPRLLIYDASNRATGIPARFSGSGSGTDFTLTISSLEPEDFAVYYCQQRSTWPPYTFGQGTKLEIKR | – | 0.35 ng/mL | 0.68 ng/mL | 1.94 ng/mL | 1.76 ng/mL | 0.08 µg/mL | – | – | – |
| Fully human BDC13-32E3 (antibody, human IgG1, kappa, V domains shown, pyroglutamylation at the N terminal of the heavy chain and deletion of lysine at the C terminal of the heavy chain in most of the purified antibody (Example 6), Human Igγ1 / human Igκ constant regions, expressed in CHOK1SV cells; also called fully human antibody of BDC13-32E3) VH: QVQLQESGPGLVKPSQTLSLTCTVSGGSISSGGYYWNWIRQHPGKGLEWIGYIYYSGNTYYNPSLKSRVTISVDTSKNQFSLKLSSVTAADAAVYHCARGYGDYGGGYFDYWGQGTLVTVSS VL: DIQMTQSPSSLSASVGDRVTITCQASQDISNYLNWYQQKPGKAPKFLIYDVSNLETGVPSRFSGSGSGTDFTFTISSLQPEDIATYYCQQYDNLPYTFGQGTKLEIKR | – | 0.32 ng/mL | 0.59 ng/mL | 2.03 ng/mL | 1.25 ng/mL | 0.203 µg/mL | – | – | – |
| BDC13-32E3 (chimeric) (antibody, V domains shown, Hybridoma-derived VelocImmune antibody: human variable regions with mouse constant regions) VH: QVQLQESGPGLVKPSQTLSLTCTVSGGSISSGGYYWNWIRQHPGKGLEWIGYIYYSGNTYYNPSLKSRVTISVDTSKNQFSLKLSSVTAADAAVYHCARGYGDYGGGYFDYWGQGTLVTVSS VL: DIQMTQSPSSLSASVGDRVTITCQASQDISNYLNWYQQKPGKAPKFLIYDVSNLETGVPSRFSGSGSGTDFTFTISSLQPEDIATYYCQQYDNLPYTFGQGTKLEIKR | 0.096 µg/mL | – | – | – | – | – | 0.43 ng/mL | 1.03 ng/mL | – |
